For this series, the target named is T1, Cra (Escherichia coli O157:H7 (EHEC) 86-24) (UniProt P0ACP3).
T1 sequence: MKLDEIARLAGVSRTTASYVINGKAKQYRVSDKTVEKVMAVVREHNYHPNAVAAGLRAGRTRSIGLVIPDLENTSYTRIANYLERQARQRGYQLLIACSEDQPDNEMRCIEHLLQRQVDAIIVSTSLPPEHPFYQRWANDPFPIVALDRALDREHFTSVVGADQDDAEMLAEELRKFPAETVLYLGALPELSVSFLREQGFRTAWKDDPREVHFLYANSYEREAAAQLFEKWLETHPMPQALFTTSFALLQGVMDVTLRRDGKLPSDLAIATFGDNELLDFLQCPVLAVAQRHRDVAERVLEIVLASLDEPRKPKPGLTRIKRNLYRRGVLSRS
In words: competition.

On to “TCGGATCCCATGTGCTGCGACTGCGTTCGCTTACCCCAATCACTTACTTATGTAAGCTCCTGGGGATTCACTCGCTTGCCGCCTTCCTGTAACTCGAATTAAGTAGAGTATAGTGAAACGGTTCAGCTTGGTTTTTATTCTGTTTTATTTGTTTATGCAATGAGATCTATCTTATAAAGAGAAACGCTTAACTAAATGGAAATGCGAATTCGA (double strand) [ler probe aa (-450 to -255)]”, for which the binding result is given as “binds”.

The values are drawn from article PMC3482499.
